{"source": "paper PMC8938473", "about": "(2022)", "biological_target": "GST-BpfD-In (BpfD intracellular domains) (Shewanella putrefaciens CN32)", "experiment": "MST"}
{"binder": "His6-CRP (natural protein, labeled with NHS NT-647 dye (in the MST assay only)) MALIGKPKPDPTLEWFLSHCHIHKYPAKSTLIHAGEDSDTLYYIVKGSVAVLIKDEEGKEMILSYLNQGDFIGELGLFEEQAERTAWVRAKQACEIAEISYKKFKQLIQVNPEILMKLSAQMAYRLQSTSQKVGNLAFLDVAGRIAQTLLHLAKQPDAMTHPDGMQIKITRQEIGQIVGCSRETVGRILKMLEEQNLIQAHGKTIVVYGTR", "values": [{"measurement": "Kd", "value": 4.9, "unit": "µM"}]}
